What was measured:
[1] = target: DnaC protein (hexamer assembled on DnaB) in the binary DnaB–DnaC complex (Escherichia coli, UniProt P0AEF0); assay: fluorescence titration; type: binding
[2] = target: DnaB helicase;DnaC protein (Escherichia coli;Escherichia coli, UniProt P0ACB0;P0AEF0 1-471;1-245, |); assay: fluorescence titration and sedimentation velocity of cofactor
DnaB helicase = DnaB helicase (Escherichia coli, UniProt P0ACB0 1-471); assay: fluorescence titration
DnaB helicase, sequence (P0ACB0 whole entry): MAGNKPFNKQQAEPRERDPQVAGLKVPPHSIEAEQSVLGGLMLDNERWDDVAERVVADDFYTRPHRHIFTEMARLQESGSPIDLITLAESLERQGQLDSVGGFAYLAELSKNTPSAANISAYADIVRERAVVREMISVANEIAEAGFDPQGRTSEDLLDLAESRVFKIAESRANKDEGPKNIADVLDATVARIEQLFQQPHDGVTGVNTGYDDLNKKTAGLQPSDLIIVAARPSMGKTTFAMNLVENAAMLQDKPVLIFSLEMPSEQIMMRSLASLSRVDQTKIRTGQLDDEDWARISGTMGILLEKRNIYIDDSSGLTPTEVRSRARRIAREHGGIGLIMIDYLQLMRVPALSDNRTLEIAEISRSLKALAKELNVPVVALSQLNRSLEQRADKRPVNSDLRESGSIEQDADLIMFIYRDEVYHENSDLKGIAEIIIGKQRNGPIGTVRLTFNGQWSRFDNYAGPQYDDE

DnaC protein (hexamer assembled on DnaB) in the binary DnaB–DnaC complex, sequence (P0AEF0 whole entry): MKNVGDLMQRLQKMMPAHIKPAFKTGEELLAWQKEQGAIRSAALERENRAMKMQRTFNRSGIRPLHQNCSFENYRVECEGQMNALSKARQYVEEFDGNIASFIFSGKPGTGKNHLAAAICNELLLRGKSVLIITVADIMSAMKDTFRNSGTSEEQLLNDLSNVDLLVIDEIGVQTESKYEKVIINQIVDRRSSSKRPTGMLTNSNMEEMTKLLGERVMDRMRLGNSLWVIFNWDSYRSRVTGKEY
DnaC protein (hexamer assembled on DnaB) in the binary DnaB–DnaC complex, sequence (P0ACB0 2-471 partner): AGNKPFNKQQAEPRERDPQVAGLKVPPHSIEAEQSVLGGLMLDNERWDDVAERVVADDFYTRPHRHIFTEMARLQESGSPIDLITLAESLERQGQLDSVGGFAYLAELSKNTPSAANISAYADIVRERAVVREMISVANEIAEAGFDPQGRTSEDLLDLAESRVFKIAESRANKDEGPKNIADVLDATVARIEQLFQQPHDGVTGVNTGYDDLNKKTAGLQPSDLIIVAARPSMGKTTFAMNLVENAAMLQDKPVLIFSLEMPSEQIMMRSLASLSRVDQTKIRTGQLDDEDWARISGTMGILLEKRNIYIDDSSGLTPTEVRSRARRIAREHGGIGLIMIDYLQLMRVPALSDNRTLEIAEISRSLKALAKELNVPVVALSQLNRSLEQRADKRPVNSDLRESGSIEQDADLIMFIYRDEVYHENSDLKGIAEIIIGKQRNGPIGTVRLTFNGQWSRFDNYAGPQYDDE
DnaB helicase;DnaC protein, sequence (P0ACB0 whole entry, chain 1 of 2): as the sequence (P0ACB0 whole entry) above
DnaB helicase;DnaC protein, sequence (P0AEF0 whole entry, chain 2 of 2): as the sequence (P0AEF0 whole entry) above

Molecule | Kd [1] | binding result [2] | binding result (DnaB helicase)
CNc1ccccc1C(=O)O[C@H]1[C@@H](O)[C@H](n2cnc3c(N)ncnc32)O[C@@H]1CO[P@@](=O)(O)O[P@](=O)(O)OP(=O)(O)O [MANT-ATP, 3′-O-(N-methylanthraniloyl)adenosine 5′-triphosphate] | 4.17 µM | – | –
AAAAAAAAAAAAAAAAAAAA (ssDNA) [dA(pdA)19 (ssDNA 20-mer)] | – | binds | binds
